T1: BMP9 as used in biolayer interferometry (human) (UniProt Q9UK05)
T1 sequence (Q9UK05 320-429, looked up): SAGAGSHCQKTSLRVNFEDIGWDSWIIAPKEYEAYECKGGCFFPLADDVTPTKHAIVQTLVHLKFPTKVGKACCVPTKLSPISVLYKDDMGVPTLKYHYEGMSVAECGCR

B1: His-ECTO (His-tagged ENG ectodomain) of the purified His-ECTO-BMP9 complex (receptor, human, UniProt P17813 26-586, looked up)
chain: ETVHCDLQPVGPERGEVTYTTSQVSKGCVAQAPNAILEVHVLFLEFPTGPSQLELTLQASKQNGTWPREVLLVLSVNSSVFLHLQALGIPLHLAYNSSLVTFQEPPGVNTTELPSFPKTQILEWAAERGPITSAAELNDPQSILLRLGQAQGSLSFCMLEASQDMGRTLEWRPRTPALVRGCHLEGVAGHKEAHILRVLPGHSAGPRTVTVKVELSCAPGDLDAVLILQGPPYVSWLIDANHNMQIWTTGEYSFKIFPEKNIRGFKLPDTPQGLLGEARMLNASIVASFVELPLASIVSLHASSCGGRLQTSPAPIQTTPPKDTCSPELLMSLIQTKCADDAMTLVLKKELVAHLKCTITGLTFWDPSCEAEDRGDKFVLRSAYSSCGMQVSASMISNEAVVNILSSSSPQRKKVHCLNMDSLSFQLGLYLSPHFLQASNTIEPGQQSFVQVRVSPSVSEFLLQLDSCHLDLGPEGGTVELIQGRAAKGNCVSLLSPSPEGDPRFSFLLHFYTVPIPKTGTLSCTVALRPKTGSQDQEVHRTVFMRLNIISPDLSGCTSKG

Columns and labels:
[1] = biological target: the molecule itself; experiment: non-reducing SDS-PAGE and immunoblot
[2] = biological target: B1; experiment: SEC-MALS
[3] = biological target: T1, BMP9 as used in biolayer interferometry (human); experiment: BLI
SEC-MALS = biological target: the molecule itself; experiment: SEC-MALS

Kd [3]	koff [3]	kon [3]	Binder	stoichiometry N [1]	also measured
			^MZP (mMBP-fused ENG P338-G581, zona pellucida module) (domain or fragment, human, UniProt P17813 338-581, looked up) PAPIQTTPPKDTCSPELLMSLIQTKCADDAMTLVLKKELVAHLKCTITGLTFWDPSCEAEDRGDKFVLRSAYSSCGMQVSASMISNEAVVNILSSSSPQRKKVHCLNMDSLSFQLGLYLSPHFLQASNTIEPGQQSFVQVRVSPSVSEFLLQLDSCHLDLGPEGGTVELIQGRAAKGNCVSLLSPSPEGDPRFSFLLHFYTVPIPKTGTLSCTVALRPKTGSQDQEVHRTVFMRLNIISPDLSG	2	
			bone morphogenetic protein 9 (BMP9), mature homodimer, untagged, expressed in HEK293 cells (ligand, human, UniProt Q9UK05 320-429, looked up) SAGAGSHCQKTSLRVNFEDIGWDSWIIAPKEYEAYECKGGCFFPLADDVTPTKHAIVQTLVHLKFPTKVGKACCVPTKLSPISVLYKDDMGVPTLKYHYEGMSVAECGCR		stoichiometry N [2]: 1 2:2 (ENG chains : BMP9 chains)
295 nM	0.0871 s⁻¹	295000 M⁻¹ s⁻¹	unfused (non-mMBP fused) wild-type OR, ENG E26-S337 (domain or fragment) ETVHCDLQPVGPERGEVTYTTSQVSKGCVAQAPNAILEVHVLFLEFPTGPSQLELTLQASKQNGTWPREVLLVLSVNSSVFLHLQALGIPLHLAYNSSLVTFQEPPGVNTTELPSFPKTQILEWAAERGPITSAAELNDPQSILLRLGQAQGSLSFCMLEASQDMGRTLEWRPRTPALVRGCHLEGVAGHKEAHILRVLPGHSAGPRTVTVKVELSCAPGDLDAVLILQGPPYVSWLIDANHNMQIWTTGEYSFKIFPEKNIRGFKLPDTPQGLLGEARMLNASIVASFVELPLASIVSLHASSCGGRLQTS		
179 nM	0.0622 s⁻¹	349000 M⁻¹ s⁻¹	^MOR as used in biolayer interferometry (domain or fragment) ETVHCDLQPVGPERGEVTYTTSQVSKGCVAQAPNAILEVHVLFLEFPTGPSQLELTLQASKQNGTWPREVLLVLSVNSSVFLHLQALGIPLHLAYNSSLVTFQEPPGVNTTELPSFPKTQILEWAAERGPITSAAELNDPQSILLRLGQAQGSLSFCMLEASQDMGRTLEWRPRTPALVRGCHLEGVAGHKEAHILRVLPGHSAGPRTVTVKVELSCAPGDLDAVLILQGPPYVSWLIDANHNMQIWTTGEYSFKIFPEKNIRGFKLPDTPQGLLGEARMLNASIVASFVELPLASIVSLHASSCGGRLQTS		
9.81 nM	0.00198 s⁻¹	200000 M⁻¹ s⁻¹	full-length ectodomain of ENG (ECTO) as used in biolayer interferometry (receptor) ETVHCDLQPVGPERGEVTYTTSQVSKGCVAQAPNAILEVHVLFLEFPTGPSQLELTLQASKQNGTWPREVLLVLSVNSSVFLHLQALGIPLHLAYNSSLVTFQEPPGVNTTELPSFPKTQILEWAAERGPITSAAELNDPQSILLRLGQAQGSLSFCMLEASQDMGRTLEWRPRTPALVRGCHLEGVAGHKEAHILRVLPGHSAGPRTVTVKVELSCAPGDLDAVLILQGPPYVSWLIDANHNMQIWTTGEYSFKIFPEKNIRGFKLPDTPQGLLGEARMLNASIVASFVELPLASIVSLHASSCGGRLQTSPAPIQTTPPKDTCSPELLMSLIQTKCADDAMTLVLKKELVAHLKCTITGLTFWDPSCEAEDRGDKFVLRSAYSSCGMQVSASMISNEAVVNILSSSSPQRKKVHCLNMDSLSFQLGLYLSPHFLQASNTIEPGQQSFVQVRVSPSVSEFLLQLDSCHLDLGPEGGTVELIQGRAAKGNCVSLLSPSPEGDPRFSFLLHFYTVPIPKTGTLSCTVALRPKTGSQDQEVHRTVFMRLNIISPDLSGCTSKG		
			His-^MECTO (His-tagged, mMBP-fused ENG ectodomain) (receptor, human, UniProt P17813 26-586, looked up) ETVHCDLQPVGPERGEVTYTTSQVSKGCVAQAPNAILEVHVLFLEFPTGPSQLELTLQASKQNGTWPREVLLVLSVNSSVFLHLQALGIPLHLAYNSSLVTFQEPPGVNTTELPSFPKTQILEWAAERGPITSAAELNDPQSILLRLGQAQGSLSFCMLEASQDMGRTLEWRPRTPALVRGCHLEGVAGHKEAHILRVLPGHSAGPRTVTVKVELSCAPGDLDAVLILQGPPYVSWLIDANHNMQIWTTGEYSFKIFPEKNIRGFKLPDTPQGLLGEARMLNASIVASFVELPLASIVSLHASSCGGRLQTSPAPIQTTPPKDTCSPELLMSLIQTKCADDAMTLVLKKELVAHLKCTITGLTFWDPSCEAEDRGDKFVLRSAYSSCGMQVSASMISNEAVVNILSSSSPQRKKVHCLNMDSLSFQLGLYLSPHFLQASNTIEPGQQSFVQVRVSPSVSEFLLQLDSCHLDLGPEGGTVELIQGRAAKGNCVSLLSPSPEGDPRFSFLLHFYTVPIPKTGTLSCTVALRPKTGSQDQEVHRTVFMRLNIISPDLSGCTSKG	2	
			B1		stoichiometry N (SEC-MALS): 2
			ECTO-Myc (Myc-tagged ENG ectodomain) (receptor, human, UniProt P17813 26-586, looked up) ETVHCDLQPVGPERGEVTYTTSQVSKGCVAQAPNAILEVHVLFLEFPTGPSQLELTLQASKQNGTWPREVLLVLSVNSSVFLHLQALGIPLHLAYNSSLVTFQEPPGVNTTELPSFPKTQILEWAAERGPITSAAELNDPQSILLRLGQAQGSLSFCMLEASQDMGRTLEWRPRTPALVRGCHLEGVAGHKEAHILRVLPGHSAGPRTVTVKVELSCAPGDLDAVLILQGPPYVSWLIDANHNMQIWTTGEYSFKIFPEKNIRGFKLPDTPQGLLGEARMLNASIVASFVELPLASIVSLHASSCGGRLQTSPAPIQTTPPKDTCSPELLMSLIQTKCADDAMTLVLKKELVAHLKCTITGLTFWDPSCEAEDRGDKFVLRSAYSSCGMQVSASMISNEAVVNILSSSSPQRKKVHCLNMDSLSFQLGLYLSPHFLQASNTIEPGQQSFVQVRVSPSVSEFLLQLDSCHLDLGPEGGTVELIQGRAAKGNCVSLLSPSPEGDPRFSFLLHFYTVPIPKTGTLSCTVALRPKTGSQDQEVHRTVFMRLNIISPDLSGCTSKG	2	

Reference: PMC5464963 (Cell Reports, 2017)
